# Laboratory results reported in the DeepSol protein solubility set.
# Test: soluble on expression in E. coli; label from the status in PepcDB or PDB records
row,Sequence,soluble on expression in E. coli
1,MATGTATEKPKIVWNEGRHRFETDDHEAFIEYKMKNDGKVMDLVRTFVPPSKAGLGLASHLCVAAFEHASEHSFSIIPTCSYVSVYISSFLKKLR,not soluble
2,MSLFQITKSKLRFPLSTFTKRYSSFQAAKSVIDKAAIDGELRVFIVSGEVSGDNIGSRLMSSLKKLSPLPIRFNGVGGSLMCKKGLNSLFPMEDLAVMGVWELLPHLYKFRVKLKETIDAAVKFKPHVVVTVDSKGFSFRLLKELRGKQHKTCFIKLVRENHEGHHHHHH,not soluble
3,MKKIATATIATAGIATFAFAQHDADAAENNNSGYNPNDPSSYSYSYTIDQQGQYHYTWQGNWNPSNSDQGHTSNGYSNANSTNNNATQSYTTNNQGTGGKGAVSHSTSNSNVKVSTTSAPSNSNGSNSISNTSGSSNNLYTAGQCTYYVYDKVGGKIGSTWGNANNWASAAAASGYTVNNSPASGSVLQSTAGGYGHVAYVENVNSDGSINVSEMNYGQGAGVVTSRTISASEASGYNYIH,not soluble
4,MKQEFSSIQFKAALLAAGLVLQVPAHANDGTIVITGAITDTTCIIEDPSDPNHTKVVQLPKISKSALKVKGDQAGRTPFTISLRDCPADLGNGVKVYFEPGPTTNYATGDLKAYKLAYATNPKATPLNSIVAATPATGVEIRISNLDDSKIPMGVDVTNQRAQGFNPVEQTGDTNKRTVTMRYLASYVKADGDIQASAITTYVGFSVVYP,not soluble
5,MGIIERIKEIEAEMARTQKNKATEYHLGQLKAKIAKLRTQLLEPPKGASGGGEGFEVTKYGHGRVALIGFPSVGKSTLLTMLTGTHSEAASYEFTTLTCIPGVIHYNDTKIQLLDLPGIIEGASEGKGRGRQVIAVAKSSDLVLMVLDASKSEGHRQILTKELEAVGLRLNKTPPQIYFKKKKTGGISFNTTAPLTHIDEKLCYQILHEYKIHNAEVLFRENATVDDFIDVIEGNRKYIKCVYVYNKIDVVGIDDVDRLSRQPNSIVISCNLKLNLDRLLARMWDEMGLVRVYSKPQGQQPDFDEPFVLSSDRGGCTVEDFCNHVHRTLVKDMKYALVWGTSTRHNPQNCGLSQHLEDEDVVQIVKKKERDEGGRGRFKSHSNAPARIADREKKAPLKQ,soluble
6,SNLDGSAQDPEKREYSSVCVGREDDIKKSERMTAVVHDREVVIFYHKGEYHAMDIRCYHSGGPLHLGDIEDFDGRPCIVCPWHKYKITLATGEGLYQSINPKDPSAKPKWCSKGIKQRIHTVTVDNGNIYVTLSNEPFKCDSDFYATGDFKVIKSSS,soluble
7,LDKRWLQICEDASTLCADRVKEVLEGHGFTGLHVAAAVADTMAVGDTLFLGASNPVRDASLVGMPLGGVDIFAARGAAGIDGTVSQAVGVALDVQHRDATAIRADRTVALMGDVTFLHDVGGLLGARPENLTIVVANDDGCGIFETLEIGAPEFRPSFEQAFGTPHGVHIEAIAQAYGVNYLRAETLPELIEALIDTTDSAGFNIIEAVTTRSTRRDIDKALTL,not soluble
8,GPGSMSSTQTTSVFFTDVPLFVEERSLRKHFESVGHITDFRLLGPPVGKDFRYGFAEYLDSTSAEEAIARLNGTSFGGRPMKVMSAAATRGRKRQRQQNASHQQQPAPRGGMTFPRGYTDPVLGRDDTSIFECLQGMQQSDAYEAVEQLRVLVLERKNEARKLLENNPALRLAVVMILQHAGRLPFGPLPPEAIQHGGIRVDAPVPAAPAEGEGEKVEPPREQNDEIIEILSKLSEEEVERIVSMTDEDLNRIPDVSQRQQIGVLRERLLELAADLE,soluble
9,GPGSMSNSGCGLPGDVDPDLPLTPDGVTYHVACSSERLADRIILVGDPDRVKMVSTYLDAGSIVYEASHREIKVVTGAYHGVPVTVLSTGMGTDNVEIVMNEVHILKEYDTQKRRWRARVGDDTPADPLETPFDPSRVKLIRVGTCGTPNDAVQIGCLAITRYAVGMDNTCQYYDAPAVNHTVDVKEVLAKVQATSLGKVQVYATKAAPAITQGLVDACTALNRKVGVSEQQPYYVGTTCSGSGFYGCQGRSVGRFRGHLTVPHLTEELGDLRFNVSEGEQRVANIEMENSALCYLSNLLGYQAGTVCVVIARRSRTNRAFATPEQLAKGLSHAITIALETLIKE,not soluble
10,MTDETTQNIKDKTEEELAALLDQTLGEFTATPAPKPRTTDDELDELMASADQEAAQKAAKDFQKMLEQMVTLQEEAMKKAGADPSEGEGEQPLDPNDPEALAMMDALKQLMECSSNVANASNPEEFMAGLDMLRSPNSPMEPFMSMIMQTLASKEVMYPPLKEIFDNYPKYLEDNGAGLDAETKERYEKQFEVLGKICTEFEKQPELAEVQPVDAATQPAPEADPASIEHFEKLGKLLVELQQYGYPPKELVGALPDGWQIDESGLPKVADAAAATEACSIM,soluble
11,GEYKMILVVRNDLKMGKGKVAAQCSHAAVSAYKQIQRRNPEMLKQWEYCGQPKVVVKAPDEETLIALLAHAKMLGLTVSLIQDAGRTQIAPGSQTVLGIGPGPADLIDKVTGHLKLY,soluble
12,MEIGTVTSQEEKLAYEKSIEMAGNYANQFDAQMEANQAIARTLACTMAEYGSQDREEAMSIIKRILNENPQLIGVYLGYEPDAFDGRDKNYINAPGHDSTGRFVPYCNKINGPVIIEPLVHYDSSDYYQLPKTTGKDTLTEPYFYEGIFMVSYDSPIFKNGEFAGIAGVDVPLEYVDDVASSIRTFDTGYAFMVSNTGIFLSHPTQKNWIGEKSLSDFDVEEIKNAASDIREGIGGHVEIKDPITGKTVIMFYEPVKTGDFSFVLVVPKEEMLAGVKDLRDRLLEHHHHHH,soluble
13,KDADHIHHLIDQSLIAKGFQEILTNSLTKGAYNELLSKQEDAVPILNKLSEELAFMRPSLAFTGLETVAYNINRRQKNLKLFEWGKVYFKRGTKYNEYNRLSVFITGNQHAESWNTPSKTVDFFDMKAVVVQILEKLHIAVTQVQEIESNPLFSKGVIYKHAGKELVQFGYISQAALKATDVKQEVLFADFNADLLLELYSNKSKYKEIS,not soluble
14,MHFYKYGVLIDQLRDSFEWRVAFLDGSVSDHCCITVPSEKFNFPPTPGATVKAKFEHANSFLPSLVAQCGSFEWFRDVTVVNSKVVIFAIVHFSNECLERDPFKINGMDYSIIENENTDFQKIVLPTRVLQTSITSRSNLQNTDTPFIYRIGVCWEPISFENGVTVNWRYYADFPITPIFELYYRETTLPYIAESMVYGVLEGVVIAENDHGALFWTPKMGCAILPSTSLDTPMPSLGSVHVILVKRCIPENSFGFSCSYELLSSFRSTEWPNLKVITDQITRKVYIEANASCRSMMENQDFPSMNVPHIGKVFRGLQQYRDKLSAGHLYDFRMEFQKEEGSFVPTIVDLCLEEDEMVDCRVVYISNETSTYFAVLDPSSNSFDRFKQSIDYIAIPFRVLFCANGVHVKNEELLLNSYKVRVRVPRNRHDVVNAIHVEHVIQSPKDPAYFITNGSVWLRTTVKFQNASRYELLCPLLEQKIIDVNGVTAAMSLTQEFTVHAQFVLMERNVPVFVVRQLASTVREHPRTTNYPSRSLNLSYEVSGALARTNPNGQLSAADNNIVLINDSISLDHNLPDTGEYPTILNESSFERQLLFDNQSIADSASTSGDFILTESVYESSSAASTCTVIDRNDARFSALNDDSNILISESWLDSTNQHSETTMDTPEIITESFYESTHDQASSRASTVDRLASDVDKISIGRPDYSPPPRRRIFGYSTPGDRVRPRNSYGSSSSGSLNGRPKRRAPYGFRQIRNITPHNVLLRDIIYNNINNRKMFVEQNKNAILKCWNRLPLAQVTRTKKIFCTVIAVESIKFPPSFDDTCIKGLVRFAVVYDDMNVKNTSVVVPIGGNFNNLPKSFQLGDAYKVFHFSSYKDLICRIGGFSHGLNGELSRVAPVNCISNPETVNGRYGQRYLRCTVNAARPAISEIESDVFELWTVHGLPGFIIVEKVPLLMNHLNKEPINPDVHHQHMYTCIIEPLAGGPVEASILKDVKEGEDICIFWRLVVEFSDTVPLPRLKEKTDKVVPQIRTEPVQSGTFSVDDYGCWETLRINSILAQEKLDRMRAVGDPRVKMIDGPDLRPEIEVRKVDVNTRREKMFAAFDALLEKLPQLHSEGILGYVLEDDLRVKIKKLTPMNDNNHKFTFTFRNGSLEIGVNYLTDMLTRGKIYKVMNEMKKHVPLLKVLSDCIGLNTTYIKKTDAVKMMLHYMYRNELHTYL,not soluble
15,MSREILTVVETVSNEKGVSREAIFEALEQALVAATKKKFYEGTNAEEAQLRVEIDRKTGDYRTFRQWTLVADEDHEMPACQDAISDVDASKWSIGDVRELEVESIEFGRIAAQIAKQVIVQKIREAERALIADAYESKVGELIYGEVKKQTKDGFIIDLGDNAEAYLAREEMIAKEILRPKQRMNAILYSVNREGRGAQLLLSRARPEMLMALMKKEIPEISEEIIEIKAAARQPGVRAKIAVKTNDHRIDPVGACIGMRGTRIQAVQQELNGERIDVVVWSDDPAQYIASALEPADVSGIVLDEDTRSADIIFATNDQLARAIGSQGQNVRLASELTGYKLDMMLEEEYRARQQNEAQQYLDMFVTRLDIEEDLAMALVEMGFTSLEEIAYVPPETFDEIELDQELVELLQSRAKEAALTDALKQQENVQEPSVELLAMAGMTQELAYALAARGVVTVDDLADQATDDISDIEGLSEEKAGQLIMKARESWFNLEHHHHHH,soluble
16,GSQPAKKTYTWNTKEEAKQAFKELLKEKRVPSNASWEQAMKMIINDPRYSALAKLSEKKQAFNAYKVQTEK,soluble
17,GMLHYTKEDLLELGAEITTREIYQQPDVWREAFEFYQAKREEIAAFLQEIADKHDYIKVILTGAGTSAYVGDTLLPYFKEVYDERKWNFNAIATTDIVANPATYLKKDVATVLVSFARSGNSPESLATVDLAKSLVDELYQVTITCAADGKLALQAHGDDRNLLLLQPAVSNDAGFAMTSSFTSMMLTTLLVFDPTEFAVKSERFEVVSSLARKVLDKAEDVKELVDLDFNRVIYLGAGPFFGLAHEAQLKILELTAGQVATMYESPVGFRHGPKSLINDNTVVLVFGTTTDYTRKYDLDLVREVAGDQIARRVVLLSDQAFGLENVKEVALGCGGVLNDIYRVFPYIVYAQLFALLTSLKVENKPDTPSPTGTVNRVVQGVIIHEYQK,soluble
18,MARMKARSAKGKRVAKDTWKSKVWYDIYTPQSFGGDVIGQTPANDPANLIGRISEISLRDLTNEHSKHMTRMYFKVDGVSGNNATSQFVGHDTTREYLKSQVRRRRSKINAIVEVRTKDGFKVRVKALVLTAVRARDHHKTEIRVRMEQIIKEMAKETPFAEFVHAMLMGGLGSKIYGDCKKMFPLKRVEIFKSEVIEFGKAAEAPVEEAAAEEVVEEAAAETQELEHHHHHH,soluble
19,MSQPLLAVNGLMMRFGGLLAVNNVSLELREREIVSLIGPNGAGKTTVFNCLTGFYKPTGGTITLRERHLEGLPGQQIARMGVVRTFQHVRLFREMTVIENLLVAQHQQLKTGLFSGLLKTPAFRRAQSEALDRAATWLERIGLLEHANRQASNLAYGDQRRLEIARCMVTQPEILMLDEPAAGLNPKETKELDELIAELRNHHNTTILLIEHDMKLVMGISDRIYVVNQGTPLANGTPEEIRNNPDVIRAYLGEA,soluble
20,MIYNKTINGLKVFIKDNDPFYEQVLNDFLTCRVKTLKVFRSIDDTKVILIDTARGPLVLKVYAPKHKMTERFLKSCIKKDYYENLIYQTDRVRGEGIQSINDYFLLAERKTLNFAHYYIMLIEYIEGVGLNEYLEISEDLKDQLSESIKELHQHGMVSGDPHKGNFIVSEKGLRLIDLSGKKTTAVLKAKDRIDLERHYNIKNELKDFGYTYLIFKKKIKKVIRDVKVKLGLKSKLEHHHHHH,not soluble
21,MDASLTGAVAELGTSKAAARIRAAAIEVFAAKGYGATTTREIAASLDMSPGAVYPHYKTKESLLYAISLEGHHSVLAAITAADFPDIAAPDRLMSTVTAYVTWHADNRASARVGQYELRSLSPEHFAIIADIRRSTTKVFTRIIEAGATAGDFHPFDIEAAALAITSLGIDVSRWFPSHTYSDPRIIAARYVELALRMVGCADRQPLDKPS,soluble
